Tested on: MS2 coat protein
Assay: apparent KD of MS2 coat protein; designed switch direction (-1 OFF switch, 1 ON switch): -1; higher = weaker reporter binding
In short: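 Normalised cluster fluorescence was curve-fitted, and each design's median over clusters is its apparent KD. Before this, SNAP-549-labelled MS2 coat protein was titrated from 0.7 or 1.5 nM, doubling to 3 µM, over RNA switches transcribed on Illumina chips by stalled E. coli RNA polymerase. Titrations had no input, 200 uM small-molecule ligand, or an oligonucleotide input, and steps lasted 0.8–1.5 h (lowest) to 10–20 min (highest).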

[1] = Eterna round: R95, input ligand: FMN 200 uM
[2] = Eterna round: R95, input ligand: microRNA oligo, concentration not stated
[3] = Eterna round: R95, input ligand: none
[4] = input ligand: microRNA oligo, concentration not stated

| Sequence | apparent KD of MS2 coat protein (input ligand: FMN 200 uM) [nM] | apparent KD of MS2 coat protein (input ligand: none) [nM] | apparent KD of MS2 coat protein [1] [nM] | apparent KD of MS2 coat protein [2] [nM] | apparent KD of MS2 coat protein [3] [nM] | apparent KD of MS2 coat protein [4] [nM] |
| --- | --- | --- | --- | --- | --- | --- |
| CAUCACUGCUAGGAUAUCGAGUCGGAGAAUACUUGAGAAGGAGCUACAUGAGGAUCACCCAUGUCCUCCGCGAU [Eternabot (L2) Solution 72] (Eterna round: R97, puzzle: Exclusion 6) | 47.3 | 18.8 |  |  |  |  |
| CCGAAUAAGUAGGAUAUCGUAUCGGAAACGAUACGAGAAGGGCUAACAUGAGGAUCACCCAUGUUCCUUAACGG [Fiskers Ex 6 - 16] (puzzle: Exclusion 6) |  |  | 20 | 16.4 | 18.7 |  |
| CAGUACUGAGGAUAUACAUGAGGAUCACCCAUGUGUACCAGCUAGGAUACUAGCAAAAGUAGAAGGCAGUACUG [Mat - Exclusion 3 - Eli Mod - D21] (Eterna round: R97, puzzle: Exclusion 3) | 31.2 | 19.5 |  |  |  |  |
| GCAGCAACUCUAACCAACUAAACAUGAGGAUCACCCAUGUCUCAGGAUAUGGUCUGGAUUACAGGCCAGAAGGGAGAAAGCUGC [Eli exng3 - 042] (Eterna round: R96, puzzle: Exclusion NG 3) | 12.4 | 12.6 |  |  |  | 12.3 |
| ACAUGAGGAUCACCCAUGUGACCACAAUGGCUGAUGUAACGACAGGAUAUGCGUGAAUAUCUAACGCAGAAGGGUCAUGACUGG [Deportation 61 - Jieux - Exclusion NG 3] (Eterna round: R96, puzzle: Exclusion NG 3) | 62.8 | 48.2 |  |  |  | 30.5 |
| UUUUUAUAUGAAGGAUAUACUUAACAUGAGGAUCACCCAUGUGGUGUUGUGAGUGAGUGAGUUUAGUAGAAGGUCAAUGAUUUA [JMF's solution 62] (Eterna round: R96, puzzle: Exclusion NG 2) | 1210 | 354 |  |  |  | 414 |
| GCUGACAAGCUGGAGACAGCAGAGACAUGAGGAUCACCCAUGUAGGAUAUCGAUGCGAAAAGCAUCGAGAAGGGCAUAGUCAGC [exng3 v2 a] (Eterna round: R96, puzzle: Exclusion NG 3) | 13.1 | 17.2 |  |  |  | 9.71 |
| UAUUAGCAAGCGAGAUCCCACAUGAGGAUCACCCAUGUAGCUCGUCUUAUAAAGGUUUCGACGAAAACGUCGAGACC [Eli 91 v27] (Eterna round: R97, puzzle: Sensor, turn-off variant 1) | 17.5 | 16.1 |  |  |  |  |
| CAUGAGGUAGGAUAUACGAUAAUAUAGGGUAGAUAUAUAACACAUGAGGAUCACCCAUGUAGAAGGACCAGUAC [Mat - Exclusion 2 - Mod of my Tesla design - D68] (puzzle: Exclusion 2) |  |  | 95.7 | 35.9 | 34.4 |  |
| CGGUGUAGAGGAUAUACGUGAAUAUAAGAACAUAAUAAUUAACAUGAGGAUCACCCAUGUAGAAGGCUAUAGCG [JR_Ex2_Sub081] (Eterna round: R97, puzzle: Exclusion 2) | 34.3 | 16.7 |  |  |  |  |
| CAGAAACAUGAGGAUCACCCAUGUGAGGAUAUGCGUACGUUGUCCGUAGGCGACGUGCGCAGAAGGCGCAAAGG [Mat - Mod of JL D85] (puzzle: Exclusion 1) |  |  | 115 | 59.3 | 116 |  |
| UUUUAACAUGAGGAUCACCCAUGUGAGGAUAUCGAAAUUUAUAUUAAUAUUUUUAAUACGAGAAGGCACAUUUU [JMF 70] (puzzle: Exclusion 1) |  |  |  | 49.6 |  |  |
| AAGAAACAUGAGGAUCACCCAUGUGAGGAUAUGAAAAAGAAAAGAAAAGAAAGAAGAAUCAGAAGGCACAAAGG [Nebkaure Khety II] (Eterna round: R96, puzzle: Exclusion 1) |  |  |  |  |  | 24.3 |
| AAAUGCAAGUAAAGAUCUUACAUGAGGAUCACCCAUGUGCUCGUCUUAUAAAGUACUAUCACGAAAGUGAUAGUACA [Sensor 3, v1 - 27] (puzzle: Sensor v3, turn-off variant 1) |  |  | 18.5 | 76.9 | 19.3 |  |
| AGUACUAACACGACAGUGUUAGUACAAUAAGCUUGUGAAACAUGAGGAUCACCCAUGUCCUCAUAAGCUCGUCUUAU [salish99_TOv2_r3_031] (puzzle: Sensor v3, turn-off variant 2) |  |  | 18.8 | 867 | 15.2 |  |
| GUCACUAGAGGAUAUACAAUGGUAUAUGAUCCUAGUGACAAACAUGAGGAUCACCCAUGUAGAAGGCUAGUAAA [Exclusion 2 - 2] (puzzle: Exclusion 2) |  |  | 24.5 | 28.3 | 28 |  |
| AGAUGUAGAUACCGAUCCUACAUGAGGAUCACCCAUGUAGCUAGACGUGCUCGCGUAGCUCGUCAGACUACCAGUAG [salish99_TOv1_r3_087] (puzzle: Sensor v3, turn-off variant 1) |  |  | 242 | 156 | 267 |  |
| ACAUUGAAUGUGAGGAUAUCGAUGUGAUGGGUUGUCGAGAAGGCACAUGAGGAUCACCCAUGUGGGAAACAGCA [JR_BMEx4_Sub031] (Eterna round: R97, puzzle: Brourd's mod of Exclusion 4) | 127 | 44.6 |  |  |  |  |
| UACGAACUAGGAUAUGCAAUGGGCUCGCUUUCCUUCGAUAAACUUGAGGAUCACCCAAGUAGAAGGAGUUUGUA [Mod 38 - Jieux - Exclusion 2] (Eterna round: R97, puzzle: Exclusion 2) | 40.8 | 16.6 |  |  |  |  |
| UUUAAUUUUUUUUUUUUACAAGCUUUUUGCUCGUCUUAUACAUGAGGAUCACCCAUGUAGGUGAGGGAUAAAUUAUC [JMF 43] (puzzle: Sensor v3, turn-off variant 2) |  |  | 29.1 | 150 | 27.3 |  |
| UUAAAUCAUGUAGGAUAUGCUUUGCAAAGCGAAGCAGAAGGACAUGAGGAUCACCCAUGUGCUAGCGUCCGAGAACGGAUGCAA [Mat - Exclusion NG 1 - Mod of JL - D65] (Eterna round: R96, puzzle: Exclusion NG 1) | 501 | 61.5 |  |  |  | 60.6 |
| UUAAAGUCAGGAUAUACAUGAGGAUCACCCAUGUAAAAUUUUAAUUUAAUUUGAAGGUGUAGAAGGGACAAAUU [Ex3 #36] (Eterna round: R97, puzzle: Exclusion 3) | 25.6 | 26 |  |  |  |  |
| CGUUGAUGAGGAUAUCGAUGUUAGUACAUGAGGAUCACCCAUGUUAUCCAAGUGUCGGAUCGAGAAGGUAUUGGAC [LRO-Ex5-19] (puzzle: Exclusion 5) |  |  |  | 241 |  |  |
| UUGGUUAUCCAUGGAAGUAACAUGAGGAUCACCCAUGUAUGUCUAGUUUUUUGUUCGUCAUAGGCCUUUUGUUUGGA [JR_SV3TOV1_Sub022] (puzzle: Sensor v3, turn-off variant 1) |  |  | 26.8 | 27.9 | 30.9 |  |
| ACAAGCUUUUUGCAACAAGCAUUAAACUCUCAGAUCGUAACAUGAGGAUCACCCAUGUAAGUUUUAUGACGUCUUAU [JR_SV3TOV2_Sub095] (puzzle: Sensor v3, turn-off variant 2) |  |  | 20.8 | 18.1 | 22.9 |  |
| AAUAACAGAGGAUAUACUAUUUUAUGUGUUUGUUAUUUUGAACAUGAGGAUCACCCAUGUAGAAGGCUGAUUGA [JMF 77] (puzzle: Exclusion 2) |  |  |  | 41.1 |  |  |
| ACAUGUGUUGUAGGAUAUAGUGGACAUGAGGAUCACCCAUGUUGAUUCAUGUCUAUGGAAACGUACUAGAAGGACGACAAUAUG [Ex NG2 #18] (Eterna round: R96, puzzle: Exclusion NG 2) | 806 | 1050 |  |  |  | 875 |
| CGGUGUCAUGUAAGGAUAUCGCAUCCCAGCGGAUACGAGAAGGUACAUGAGGAUCACCCAUGUACGAUAAAAUA [Atzabian] (puzzle: Brourd's mod of Exclusion 4) |  |  |  | 12.5 |  |  |
| GUAGAGUAAGGAUAUGGUGAAUAGGAUAGAAUGGUUAGAAAUCAGAAGGUACAUGAGGAUCACCCAUGUAAUGU [Excluse me!!!! 15 - Jieux - Exclusion 4] (puzzle: Exclusion 4) |  |  |  | 21 |  |  |
| GGGCCACAUGAGGAUCACCCAUGUGAGGAUAUCAUGCUUCGUAGUAAACUACGAAGUGUGAGAAGGCACAAUGG [Omei Ex1 C9] (Eterna round: R97, puzzle: Exclusion 1) | 444 | 143 |  |  |  |  |

— the supplement of paper PMC9170038
